# Test results published in IntAct's records for PubMed 29892012.
# B1: TBC1 domain family member 22B (Homo sapiens), Q9NU19 (parent)
# chain: MAAENSKQFWKRSAKLPGSIQPVYGAQHPPLDPRLTKNFIKERSKVNTVPLKNKKASSFHEFARNTSDAWDIGDDEEEDFSSPSFQTLNSKVALATAAQVLENHSKLRVKPERSQSTTSDVPANYKVIKSSSDAQLSRNSSDTCLRNPLHKQQSLPLRPIIPLVARISDQNASGAPPMTVREKTRLEKFRQLLSSQNTDLDELRKCSWPGVPREVRPITWRLLSGYLPANTERRKLTLQRKREEYFGFIEQYYDSRNEEHHQDTYRQIHIDIPRTNPLIPLFQQPLVQEIFERILFIWAIRHPASGYVQGINDLVTPFFVVFLSEYVEEDVENFDVTNLSQDMLRSIEADSFWCMSKLLDGIQDNYTFAQPGIQKKVKALEELVSRIDEQVHNHFRRYEVEYLQFAFRWMNNLLMRELPLRCTIRLWDTYQSEPEGFSHFHLYVCAAFLIKWRKEILDEEDFQGLLMLLQNLPTIHWGNEEIGLLLAEAYRLKYMFADAPNHYRR
# B2: TBC1 domain family member 22B (Homo sapiens), Q9NU19 (parent)
# chain: B1 chain
# partner: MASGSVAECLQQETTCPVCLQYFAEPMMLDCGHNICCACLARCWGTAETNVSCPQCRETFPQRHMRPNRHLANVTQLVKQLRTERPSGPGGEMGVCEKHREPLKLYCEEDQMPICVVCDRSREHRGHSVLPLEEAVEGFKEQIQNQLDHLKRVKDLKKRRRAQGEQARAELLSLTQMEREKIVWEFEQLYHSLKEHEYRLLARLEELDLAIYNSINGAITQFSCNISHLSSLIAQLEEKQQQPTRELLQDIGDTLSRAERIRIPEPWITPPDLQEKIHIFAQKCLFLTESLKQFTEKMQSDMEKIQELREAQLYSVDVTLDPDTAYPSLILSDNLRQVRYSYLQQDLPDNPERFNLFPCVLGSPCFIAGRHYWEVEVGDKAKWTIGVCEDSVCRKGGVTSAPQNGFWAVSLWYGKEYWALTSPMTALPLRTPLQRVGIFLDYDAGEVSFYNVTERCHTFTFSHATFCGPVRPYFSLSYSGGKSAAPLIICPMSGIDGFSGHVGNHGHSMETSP
# B3: Coiled-coil alpha-helical rod protein 1 (Homo sapiens), Q8TD31 (parent)
# chain: MFPPSGSTGLIPPSHFQARPLSTLPRMAPTWLSDIPLVQPPGHQDVSERRLDTQRPQVTMWERDVSSDRQEPGRRGRSWGLEGSQALSQQAEVIVRQLQELRRLEEEVRLLRETSLQQKMRLEAQAMELEALARAEKAGRAEAEGLRAALAGAEVVRKNLEEGSQRELEEVQRLHQEQLSSLTQAHEEALSSLTSKAEGLEKSLSSLETRRAGEAKELAEAQREAELLRKQLSKTQEDLEAQVTLVENLRKYVGEQVPSEVHSQTWELERQKLLETMQHLQEDRDSLHATAELLQVRVQSLTHILALQEEELTRKVQPSDSLEPEFTRKCQSLLNRWREKVFALMVQLKAQELEHSDSVKQLKGQVASLQEKVTSQSQEQAILQRSLQDKAAEVEVERMGAKGLQLELSRAQEARRRWQQQTASAEEQLRLVVNAVSSSQIWLETTMAKVEGAAAQLPSLNNRLSYAVRKVHTIRGLIARKLALAQLRQESCPLPPPVTDVSLELQQLREERNRLDAELQLSARLIQQEVGRAREQGEAERQQLSKVAQQLEQELQQTQESLASLGLQLEVARQGQQESTEEAASLRQELTQQQELYGQALQEKVAEVETRLREQLSDTERRLNEARREHAKAVVSLRQIQRRAAQEKERSQELRRLQEEARKEEGQRLARRLQELERDKNLMLATLQQEGLLSRYKQQRLLTVLPSLLDKKKSVVSSPRPPECSASAPVAAAVPTRESIKGSLSVLLDDLQDLSEAISKEEAVCQGDNLDRCSSSNPQMSS
# partner: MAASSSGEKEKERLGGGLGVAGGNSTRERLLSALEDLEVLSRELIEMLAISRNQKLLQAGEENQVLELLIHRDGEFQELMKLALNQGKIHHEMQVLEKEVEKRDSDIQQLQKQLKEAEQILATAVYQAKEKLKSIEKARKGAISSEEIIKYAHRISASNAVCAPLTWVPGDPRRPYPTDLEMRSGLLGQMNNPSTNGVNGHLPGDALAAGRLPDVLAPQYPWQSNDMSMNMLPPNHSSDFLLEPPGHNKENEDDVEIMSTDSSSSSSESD
# B4: Coiled-coil alpha-helical rod protein 1 (Homo sapiens), Q8TD31 (parent)
# chain: B3 chain
# partner: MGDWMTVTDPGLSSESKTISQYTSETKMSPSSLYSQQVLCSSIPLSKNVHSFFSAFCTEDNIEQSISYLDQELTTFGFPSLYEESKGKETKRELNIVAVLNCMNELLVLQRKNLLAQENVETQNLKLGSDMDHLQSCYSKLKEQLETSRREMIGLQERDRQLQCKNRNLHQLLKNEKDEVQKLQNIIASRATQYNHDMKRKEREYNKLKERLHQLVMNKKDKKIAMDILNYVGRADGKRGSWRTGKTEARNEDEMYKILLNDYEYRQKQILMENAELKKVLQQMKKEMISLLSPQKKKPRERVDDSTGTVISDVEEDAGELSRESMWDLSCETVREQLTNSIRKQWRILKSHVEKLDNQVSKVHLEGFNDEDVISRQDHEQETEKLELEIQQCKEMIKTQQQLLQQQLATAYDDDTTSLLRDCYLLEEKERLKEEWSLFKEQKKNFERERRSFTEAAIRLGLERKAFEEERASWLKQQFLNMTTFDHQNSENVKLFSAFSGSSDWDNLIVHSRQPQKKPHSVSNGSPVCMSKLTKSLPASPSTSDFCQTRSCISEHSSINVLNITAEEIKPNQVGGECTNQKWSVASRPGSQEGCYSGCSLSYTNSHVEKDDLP
# Variants of: B1
# Settings: with fxr2_human FXR2, P51116
# Sequence of fxr2_human FXR2, P51116 (P51116 whole entry): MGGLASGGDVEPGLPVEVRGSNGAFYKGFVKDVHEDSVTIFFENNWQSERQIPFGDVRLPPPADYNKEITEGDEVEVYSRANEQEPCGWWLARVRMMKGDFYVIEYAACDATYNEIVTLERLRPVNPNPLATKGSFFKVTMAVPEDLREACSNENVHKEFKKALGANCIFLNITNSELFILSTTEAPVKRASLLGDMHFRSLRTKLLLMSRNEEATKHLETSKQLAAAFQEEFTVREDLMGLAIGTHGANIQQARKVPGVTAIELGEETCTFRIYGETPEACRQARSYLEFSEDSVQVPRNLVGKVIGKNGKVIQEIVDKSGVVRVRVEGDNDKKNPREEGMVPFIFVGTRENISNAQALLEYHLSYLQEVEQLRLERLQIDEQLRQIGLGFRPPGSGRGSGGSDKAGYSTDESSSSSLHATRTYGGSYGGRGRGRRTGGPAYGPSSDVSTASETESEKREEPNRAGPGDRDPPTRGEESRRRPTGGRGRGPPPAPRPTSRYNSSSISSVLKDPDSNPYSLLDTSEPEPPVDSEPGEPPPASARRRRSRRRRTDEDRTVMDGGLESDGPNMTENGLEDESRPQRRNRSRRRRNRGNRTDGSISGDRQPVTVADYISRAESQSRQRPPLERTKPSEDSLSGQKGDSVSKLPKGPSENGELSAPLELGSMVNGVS
row,Variant,effect of a mutation on the interaction
1,MAAENSKQFWKRSAKLPGSIQPVYGAQHPPLDPRLTKNFIKERSKVNTVPLKNKKASSFHEFARNTSDAWDIGDDEEEDFSSPSFQTLNSKVALATAAQVLENHSKLRVKPERSQSTTSDVPANYKVIKSSSDAQLSRNSSDTCLRNPLHKQQSLPLRPIIPLVARISDQNASGAPPMTVREKTRLEKFRQLLSSQNTDLDELRKCSWPGVPREVRPITWRLLSGYLPANTERRKLTLQRKREEYFGFIEQYYDSRNEEHHQDTYRQIHIDIPRTNPLIPLFQQPLVQEIFERILFIWAIRHPASGYVQGINDLVTPFFVVFLSEYVEEDVENFDVTNLSQDMLRSIETDSFWCMSKLLDGIQDNYTFAQPGIQKKVKALEELVSRIDEQVHNHFRRYEVEYLQFAFRWMNNLLMRELPLRCTIRLWDTYQSEPEGFSHFHLYVCAAFLIKWRKEILDEEDFQGLLMLLQNLPTIHWGNEEIGLLLAEAYRLKYMFADAPNHYRR [A349T],disrupting interaction strength

# Variants of: B1
# Settings: with ikzf3_human IKZF3, Q9UKT9
# Sequence of ikzf3_human IKZF3, Q9UKT9 (Q9UKT9 whole entry): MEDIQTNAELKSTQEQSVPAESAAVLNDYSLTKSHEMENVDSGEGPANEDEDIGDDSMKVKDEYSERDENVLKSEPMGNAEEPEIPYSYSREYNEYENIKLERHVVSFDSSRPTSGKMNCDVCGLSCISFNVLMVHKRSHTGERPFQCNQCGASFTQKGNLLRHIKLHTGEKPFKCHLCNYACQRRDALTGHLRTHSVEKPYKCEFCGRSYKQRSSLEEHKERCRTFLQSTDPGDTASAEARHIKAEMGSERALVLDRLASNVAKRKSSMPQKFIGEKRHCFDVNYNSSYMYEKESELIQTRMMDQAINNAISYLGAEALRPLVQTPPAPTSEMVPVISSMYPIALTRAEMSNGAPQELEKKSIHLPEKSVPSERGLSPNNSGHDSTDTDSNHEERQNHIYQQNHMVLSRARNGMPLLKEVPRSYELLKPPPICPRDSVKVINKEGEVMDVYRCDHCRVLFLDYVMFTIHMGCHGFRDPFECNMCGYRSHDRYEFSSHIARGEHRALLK
row,Variant,effect of a mutation on the interaction
1,MAAENSKQFWKRSAKLPGSIQPVYGAQHPPLDPRLTKNFIKERSKVNTVPLKNKKASSFHEFARNTSDAWDIGDDEEEDFSSPSFQTLNSKVALATAAQVLENHSKLRVKPERSQSTTSDVPANYKVIKSSSDAQLSRNSSDTCLRNPLHKQQSLPLRPIIPLVARISDQNASGAPPMTVREKTRLEKFRQLLSSQNTDLDELRKCSWPGVPREVRPITWRLLSGYLPANTERRKLTLQRKREEYFGFIEQYYDSRNEEHHQDTYRQIHIDIPRTNPLIPLFQQPLVQEIFERILFIWAIRHPASGYVQGINDLVTPFFVVFLSEYVEEDVENFDVTNLSQDMLRSIETDSFWCMSKLLDGIQDNYTFAQPGIQKKVKALEELVSRIDEQVHNHFRRYEVEYLQFAFRWMNNLLMRELPLRCTIRLWDTYQSEPEGFSHFHLYVCAAFLIKWRKEILDEEDFQGLLMLLQNLPTIHWGNEEIGLLLAEAYRLKYMFADAPNHYRR [A349T],disrupting interaction strength

# Variants of: B1
# Settings: with tacc3_human TACC3, Q9Y6A5
row,Variant,effect of a mutation on the interaction
1,MAAENSKQFWKRSAKLPGSIQPVYGAQHPPLDPRLTKNFIKERSKVNTVPLKNKKASSFHEFARNTSDAWDIGDDEEEDFSSPSFQTLNSKVALATAAQVLENHSKLRVKPERSQSTTSDVPANYKVIKSSSDAQLSRNSSDTCLRNPLHKQQSLPLRPIIPLVARISDQNASGAPPMTVREKTRLEKFRQLLSSQNTDLDELRKCSWPGVPREVRPITWRLLSGYLPANTERRKLTLQRKREEYFGFIEQYYDSRNEEHHQDTYRQIHIDIPRTNPLIPLFQQPLVQEIFERILFIWAIRHPASGYVQGINDLVTPFFVVFLSEYVEEDVENFDVTNLSQDMLRSIETDSFWCMSKLLDGIQDNYTFAQPGIQKKVKALEELVSRIDEQVHNHFRRYEVEYLQFAFRWMNNLLMRELPLRCTIRLWDTYQSEPEGFSHFHLYVCAAFLIKWRKEILDEEDFQGLLMLLQNLPTIHWGNEEIGLLLAEAYRLKYMFADAPNHYRR [A349T],disrupting interaction strength

# Variants of: B1
# Settings: with tri23_human TRIM23, P36406
# Sequence of tri23_human TRIM23, P36406 (P36406 whole entry): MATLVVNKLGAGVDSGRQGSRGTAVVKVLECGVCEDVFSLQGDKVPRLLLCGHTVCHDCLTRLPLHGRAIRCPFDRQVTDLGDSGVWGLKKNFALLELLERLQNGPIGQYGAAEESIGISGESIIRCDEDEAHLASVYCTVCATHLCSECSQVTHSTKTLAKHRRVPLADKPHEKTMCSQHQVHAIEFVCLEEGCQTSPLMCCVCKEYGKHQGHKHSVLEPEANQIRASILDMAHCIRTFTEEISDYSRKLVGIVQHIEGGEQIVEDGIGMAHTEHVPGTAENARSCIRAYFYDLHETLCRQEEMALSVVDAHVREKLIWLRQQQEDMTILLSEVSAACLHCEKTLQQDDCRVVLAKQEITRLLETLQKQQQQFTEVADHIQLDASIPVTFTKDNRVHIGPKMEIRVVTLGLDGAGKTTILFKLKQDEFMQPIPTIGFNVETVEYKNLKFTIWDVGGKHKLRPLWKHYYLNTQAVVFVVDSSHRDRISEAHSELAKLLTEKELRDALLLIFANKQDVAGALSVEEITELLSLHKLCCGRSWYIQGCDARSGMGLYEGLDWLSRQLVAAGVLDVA
row,Variant,effect of a mutation on the interaction
1,MAAENSKQFWKRSAKLPGSIQPVYGAQHPPLDPRLTKNFIKERSKVNTVPLKNKKASSFHEFARNTSDAWDIGDDEEEDFSSPSFQTLNSKVALATAAQVLENHSKLRVKPERSQSTTSDVPANYKVIKSSSDAQLSRNSSDTCLRNPLHKQQSLPLRPIIPLVARISDQNASGAPPMTVREKTRLEKFRQLLSSQNTDLDELRKCSWPGVPREVRPITWRLLSGYLPANTERRKLTLQRKREEYFGFIEQYYDSRNEEHHQDTYRQIHIDIPRTNPLIPLFQQPLVQEIFERILFIWAIRHPASGYVQGINDLVTPFFVVFLSEYVEEDVENFDVTNLSQDMLRSIETDSFWCMSKLLDGIQDNYTFAQPGIQKKVKALEELVSRIDEQVHNHFRRYEVEYLQFAFRWMNNLLMRELPLRCTIRLWDTYQSEPEGFSHFHLYVCAAFLIKWRKEILDEEDFQGLLMLLQNLPTIHWGNEEIGLLLAEAYRLKYMFADAPNHYRR [A349T],disrupting interaction strength

# Variants of: B1
# Settings: with pnma5_human PNMA5, Q96PV4
# Sequence of pnma5_human PNMA5, Q96PV4 (Q96PV4 whole entry): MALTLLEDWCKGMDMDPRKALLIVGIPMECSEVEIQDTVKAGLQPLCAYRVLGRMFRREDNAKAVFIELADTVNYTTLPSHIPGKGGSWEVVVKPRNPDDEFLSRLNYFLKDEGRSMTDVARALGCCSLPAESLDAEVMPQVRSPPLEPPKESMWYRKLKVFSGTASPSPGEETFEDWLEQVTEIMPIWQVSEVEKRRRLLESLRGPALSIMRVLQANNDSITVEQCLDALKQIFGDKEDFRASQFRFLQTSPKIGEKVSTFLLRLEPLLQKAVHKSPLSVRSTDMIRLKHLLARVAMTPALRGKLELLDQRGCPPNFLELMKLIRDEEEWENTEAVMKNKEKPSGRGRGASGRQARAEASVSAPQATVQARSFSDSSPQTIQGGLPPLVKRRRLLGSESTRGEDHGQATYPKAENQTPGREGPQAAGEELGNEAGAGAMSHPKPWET
row,Variant,effect of a mutation on the interaction
1,MAAENSKQFWKRSAKLPGSIQPVYGAQHPPLDPRLTKNFIKERSKVNTVPLKNKKASSFHEFARNTSDAWDIGDDEEEDFSSPSFQTLNSKVALATAAQVLENHSKLRVKPERSQSTTSDVPANYKVIKSSSDAQLSRNSSDTCLRNPLHKQQSLPLRPIIPLVARISDQNASGAPPMTVREKTRLEKFRQLLSSQNTDLDELRKCSWPGVPREVRPITWRLLSGYLPANTERRKLTLQRKREEYFGFIEQYYDSRNEEHHQDTYRQIHIDIPRTNPLIPLFQQPLVQEIFERILFIWAIRHPASGYVQGINDLVTPFFVVFLSEYVEEDVENFDVTNLSQDMLRSIETDSFWCMSKLLDGIQDNYTFAQPGIQKKVKALEELVSRIDEQVHNHFRRYEVEYLQFAFRWMNNLLMRELPLRCTIRLWDTYQSEPEGFSHFHLYVCAAFLIKWRKEILDEEDFQGLLMLLQNLPTIHWGNEEIGLLLAEAYRLKYMFADAPNHYRR [A349T],disrupting interaction strength

# Variants of: B2
# Settings: with tri27_human TRIM27, P14373
row,Variant,effect of a mutation on the interaction
1,MAAENSKQFWKRSAKLPGSIQPVYGAQHPPLDPRLTKNFIKERSKVNTVPLKNKKASSFHEFARNTSDAWDIGDDEEEDFSSPSFQTLNSKVALATAAQVLENHSKLRVKPERSQSTTSDVPANYKVIKSSSDAQLSRNSSDTCLRNPLHKQQSLPLRPIIPLVARISDQNASGAPPMTVREKTRLEKFRQLLSSQNTDLDELRKCSWPGVPREVRPITWRLLSGYLPANTERRKLTLQRKREEYFGFIEQYYDSRNEEHHQDTYRQIHIDIPRTNPLIPLFQQPLVQEIFERILFIWAIRHPASGYVQGINDLVTPFFVVFLSEYVEEDVENFDVTNLSQDMLRSIETDSFWCMSKLLDGIQDNYTFAQPGIQKKVKALEELVSRIDEQVHNHFRRYEVEYLQFAFRWMNNLLMRELPLRCTIRLWDTYQSEPEGFSHFHLYVCAAFLIKWRKEILDEEDFQGLLMLLQNLPTIHWGNEEIGLLLAEAYRLKYMFADAPNHYRR [A349T],disrupting interaction strength

# Variants of: B3
# Settings: with med4_human MED4, Q9NPJ6
row,Variant,effect of a mutation on the interaction
1,W337R,with no effect

# Variants of: B4
# Settings: with adip_human SSX2IP
row,Variant,effect of a mutation on the interaction
1,W337R,disrupting interaction strength
